B1: Liver IDS: Naturally glycosylated mature iduronate 2-sulfatase purified from human liver (protein, UniProt P22304 34-455; P22304 456-550, looked up)
Iduronate 2-sulfatase 42 kDa …: TDALNVLLIIVDDLRPSLGCYGDKLVRSPNIDQLASHSLLFQNAFAQQAVCAPSRVSFLTGRRPDTTRLYDFNSYWRVHAGNFSTIPQYFKENGYVTMSVGKVFHPGISSNHTDDSPYSWSFPPYHPSSEKYENTKTCRGPDGELHANLLCPVDVLDVPEGTLPDKQSTEQAIQLLEKMKTSASPFFLAVGYHKPHIPFRYPKEFQKLYPLENITLAPDPEVPDGLPPVAYNPWMDIRQREDVQALNISVPYGPIPVDFQRKIRQSYFASVSYLDTQVGRLLSALDDLQLANSTIIAFTSDHGWALGEHGEWAKYSNFDVATHVPLIFYVPGRTASLPEAGEKLFPYLDPFDSASQLMEPGRQSMDLVELVSLFPTLAGLAGLQVPPRCPVPSFHVELCREGKNLLKHFRFRDLEEDPYLPG
Iduronate 2-sulfatase 14 kDa …: NPRELIAYSQYPRPSDIPQWNSDKPSLKDIKIMGYSIRTIDYRYTVWVGFNPDEFLANFSDIHAGELYFVDSDPLQDHNMYNDSQGGDLFQLLMP
modifications: natural glycosylation, liver-purified
notes: Naturally glycosylated mature iduronate 2-sulfatase purified from human liver
B2: rIDS: Recombinant human iduronate 2-sulfatase, highly glycosylated, secreted by CHO-K1 clonal line CHOEFI2S-9 (protein)
chain: SETQANSTTDALNVLLIIVDDLRPSLGCYGDKLVRSPNIDQLASHSLLFQNAFAQQAVCAPSRVSFLTGRRPDTTRLYDFNSYWRVHAGNFSTIPQYFKENGYVTMSVGKVFHPGISSNHTDDSPYSWSFPPYHPSSEKYENTKTCRGPDGELHANLLCPVDVLDVPEGTLPDKQSTEQAIQLLEKMKTSASPFFLAVGYHKPHIPFRYPKEFQKLYPLENITLAPDPEVPDGLPPVAYNPWMDIRQREDVQALNISVPYGPIPVDFQRKIRQSYFASVSYLDTQVGRLLSALDDLQLANSTIIAFTSDHGWALGEHGEWAKYSNFDVATHVPLIFYVPGRTASLPEAGEKLFPYLDPFDSASQLMEPGRQSMDLVELVSLFPTLAGLAGLQVPPRCPVPSFHVELCREGKNLLKHFRFRDLEEDPYLPGNPRELIAYSQYPRPSDIPQWNSDKPSLKDIKIMGYSIRTIDYRYTVWVGFNPDEFLANFSDIHAGELYFVDSDPLQDHNMYNDSQGGDLFQLLMP

What was measured:
[1] = Catalytic properties of IDS with radiolabelled disaccharide substrate; type: biochemical; conditions: for Specific Activity / pH Optimum: IdoA2S-anM6S substrate; for Km / Vmax: IdoA2S-anM6S, 50 mM sodium acetate pH 4.5, 500 μg/ml BSA
Method: (§1) Media samples, or cell lysates prepared by six cycles of freeze/thaw in 0.5 M-NaCl/20 mM-Tris/HCl, pH 7.0, were clarified by microcentrifugation (12,000×g, 4° C., 5 min) and were either assayed directly or after dilution in assay buffer. […] IDS was assayed using the radiolabelled disaccharide substrate IdoA2S-anM6S (3). Protein estimations were according to the method of Lowry et al (29).
(§2) The rIDS was purified from the collected medium by a 3-step column procedure. The medium was dialysed overnight at 4° C. against 30 mM-Tris/HCl, pH 7.0/10% v/v glycerol/0.1 mM-DTE/3 mM-NaN3 (buffer A) and was applied to a PBE94 column (8 cm×1.5 cm) equilibrated in buffer A (flow-rate 1.0 ml/min) and then washed with 100 ml of buffer A. Bound proteins were […] with polybuffer 74 that had been diltured 1:18 with water, the pH adjusted to 4.0 with HCl and the solution made 10% v/v in glycerol, 0.1 mM-DTE and 3 mM-NaN3. The column was further eluted with 100 ml 15 mM-ditheriothreitol/3 mM-NaN3 (buffer B). The rIDS eluted in buffer B was applied at a flow-rate of 1.0 ml/min to a Blue A agarose column (6 cm×0.7 cm) also equilibrated in buffer B. The rIDS activity from this step was applied in 1.0 ml volumes to an LKB Ultrachrom GTi f.p.l.c. system with a TSK G3000SW Ultrapac column (30 cm×0.8 cm) equilibrated and eluted in buffer B at a flow-rate of 0.5 ml/min and pressure of 150 kPa. Fractions containing rIDS activity were pooled and analysed under denaturing and non-denaturing condition on SDS-PAGE (10% w/v acrylamide) to estimate apparent subunit size. Gels were stained with either Gradipure Colloidal Electrophoresis Gel Stain (Gradipure, Pyrmont, NSW) or silver stained accordinng to the method of Merril et al (32). Native molecular mass was determined using the f.p.l.c. system as described elsewhere (3) Kinetic (Km, V max, pH optima) and inhibition data were obtained as previously described (3).
Although both the liver and rIDS show a similar Km towards the disaccharide substrate (IdoA2S-anM6S) in the standard assay (50 mM sodium acetate pH 4.5 and 500 μg/ml BSA) they have a substantially different V max. […] Alternatively, this may reflect a difference between enzyme produced in CHO cells and in liver. Both the (CHO) recombinant and (liver) mature form of the enzyme have similar pH optima and specific activities (Table 2).

[2] = tested on: MPS II skin fibroblasts (SF-635); assay: Subcellular fractionation of rIDS-treated cells on Percoll density gradients; type: cell-based, human; conditions: corrected MPS II cells; Percoll gradient of post-nuclear supernatant
Method: Cells from SF-635 were grown to confluency in 75 cm^2 flasks and then exposed to medium supplemented with 5×10^4 pmol/min per ml rIDS. The cells were incubated for 72 h then harvested and fractionated on Percoll density gradients as described in Anson el al (27). The resulting gradient was collected in 1.0 ml fractions by bottom puncture and the fractions analysed for IDS and β-hexosaminidase activity.

[3] = Chromatofocusing on PBE94; type: physicochemical; conditions: majority of rIDS (pool B)
Method: as §2, with “Gels were stained with either Gradipure Colloidal Electrophoresis Gel Stain (Gradipure, Pyrmont, NSW) or silver stained accordinng to the method of Merril et al (32).” left out

[4] = tested on: MPS II fibroblasts (SF-635 and SF-1779); assay: Correction of MPS II fibroblasts by rIDS; type: cell-based, human; conditions: for 35S-cpm/mg Cell Protein / β-Hexosaminidase activity in cell lysate / IDS activity in cell lysate: 5 × 10^4 pmol/min per ml rIDS, 72 hours; for IDS activity in cell lysate: undialysed lysate
Method: Human diploid fibroblasts were established from skin biopsies submitted to this hosptial for diagnosis (28). Cell lines were maintained according to established procedures in BME, 10% v/v FCS and antibiotics unless otherwise stated. The two MPS II skin fibroblast cell lines used in this study (SF-635 and SF-1779) both have low residual IDS activity.
as §1
The fluorogenic substrate 4-methylumbelliferyl-2-acetamido-2-deoxy-β-D-glucopyranoside was used to measure β-hexosaminidase activity (31).
For these experiments IDS was obtained from CHOEFI2S-9 cells cultured in CHO-SFM medium suppplemented with 10 mM-NH4C1 and antibiotics. […] Fibroblasts from a normal individual (SF-3409) and from two MPS II patients (SF-635 and SF-1779) were grown to confluency in 25 cm^2 flasks and radiolabelled with Na2^35SO4 as previously described (27). The labelled cells were then exposed to 5×10^4 pmol/min per ml of rIDS for 72 hours. After harvesting the cells by trypsin treatment and washing by centrifugation/resuspension in PBS, the cell pellet was resuspended in 100 μl of 20 mM-Tris/HCl, pH 7.0/0.5 M-NaCl, and the cell lysates prepared as described above. The cell extracts were analysed for IDS activity, total protein, β-hexosaminidase activity and radioactivity.

[5] = tested on: MPS II cells (SF-1779); assay: Endocytosis of rIDS with or without mannose-6-phosphate; type: cell-based, human; conditions: rIDS at 5×10^4 and 5×10^3 pmol/min per ml, 5 mM mannose-6-phosphate
Method: Cells from SF-1779 were plated in 20 wells (3.83 cm^2) and allowed to reach confluency. Wells 1 to 4 were untreated controls. To each of wells 5 to 12 and 13 to 20 was added 1.0 ml of medium containing rIDS at 5×10^4 pmol/min per ml and 5×10^3 pmol/min per ml respectively. In addition the medium in wells 9 to 12 and 17 to 20 was made 5 mM mannose-6-phosphate. The cells were then incubated for 6 hours after which time they were rinsed with medium and fresh medium added. The cells were incubated overnight and then harvested, washed and lysed as described above. The cell lysates were dialysed against 5 mM-sodium acetate, pH 4.0, for 16 h at 4° C. and then analysed for IDS activity and total protein.

Effect on activity of second lysosomal enzyme β-hexosaminidase ([4]; endocytosis of IDS in MPS II fibroblasts)	Molecule	Specific Activity [1] [μmol/min per mg]	pH Optimum [1]	Km [1] [µM]	Vmax [1] [μmol/min per mg]	Subcellular localisation of endocytosed enzyme [2]	pI [3]	Clearance of stored 35S-labelled material ([4]; MPS II fibroblasts, rIDS at 5×10^4 pmol/min per ml)	IDS activity level above normal ([4]; SF635, rIDS at 5×10^4 pmol/min per ml) [fold]	IDS activity level above normal ([4]; SF1779, rIDS at 5×10^4 pmol/min per ml) [fold]	35S-cpm/mg Cell Protein ([4]; SF-635 cells labelled with Na2 35SO4) [cpm/mg]	β-Hexosaminidase activity in cell lysate ([4]; SF-635 cells) [nmol/min per mg]	IDS activity in cell lysate ([4]; SF-635 cells) [pmol/min per mg]	35S-cpm/mg Cell Protein ([4]; SF-1779 cells labelled with Na2 35SO4) [cpm/mg]	β-Hexosaminidase activity in cell lysate ([4]; SF-1779 cells) [nmol/min per mg]	IDS activity in cell lysate ([4]; SF-1779 cells) [pmol/min per mg]	Uptake of IDS activity in presence or absence of mannose-6-phosphate [5]
–	B1	11.9	4.5	4	80	–	–	–	–	–	–	–	–	–	–	–	–
not affected	B2	20.8	4.5	3	3.35	fractionated with the lysosomal enzyme β-hexosaminidase in the dense fraction of the gradient	< 4.0	clearance of this stored product to levels comparable to those seen in control fibroblasts	80	40	9018 ± 1988	257 ± 14	1140 ± 50	5136 ± 502	118 ± 11	562 ± 99	uptake is mediated via the mannose-6-phosphate receptor

— patent US6541254B1, “Glycosylation variants of iduronate 2-sulfatase” (Women's and Children's Hospital, priority 1991, dated 2003)
